Data on 41 sequences can be found in the nanobody polyreactivity screen of Harvey et al. (2022).

The data set is described as follows: yeast display, Sf9 membrane polyspecificity reagent, FACS + sequencing; frameworks hold sequencing errors. Summed up:
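After 36–48 hours of galactose induction, yeast (Saccharomyces cerevisiae BJ5465) displaying a synthetic nanobody library were stained at 4 °C for 1 hour with 10% biotinylated, detergent-solubilized Sf9 membrane reagent. Streptavidin microbeads enriched the stained cells before FACS sorting into low and high (top ~1%) gates on anti-HA and streptavidin fluorescence. Each clone's polyreactivity label reflects its gate of origin.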
As for “QVQLVESGGGLVQAGGSLRLSCAASGLTFRFYTMGWDRQAPGKERELVAAISTSGGSTYYADSVKGRFTISRDNAKNTVYLQMNSLKPEDTAVYYCNAVYALNGYDYWGQGTQVTVSS”, the “polyreactivity (PSR sort gate)” value is “low polyreactivity”.

“QVQLVESGGGLVQAGGSLRLSCAASGLTFRGYAMGWYRQAPGKERELVAAITSSAGRTYYADSVKGRFTISRDNAKNTVYLQMNSLKPEDTAVYYCAAEYASWFGSMNYWGQGTQVTVSS”: the “polyreactivity (PSR sort gate)” value was “high polyreactivity”.

As for “QVQLVESGGGLVQAGGSLRLSCAASGLTFRPNAMGWYRQAPGKERELVAAISWSGRTYYADSVKGRFTISRDNAKNTVYLQMNILKPEDTAVYYCAARGYSDRYGYWGQGTQVTVSS”, the “polyreactivity (PSR sort gate)” value is on record as “high polyreactivity”.

For the sequence “QVQLVESGGGLVQAGGSLRLSCAASGLTFRRNTMGWYRQAPGKERELVATITSGGSTNYADSVKGRFTISRDNAKNTVYLQMNSLKPEDTAVYYCAARTTYITTWVYRHTYTYYYWGQGTQVTVSS”, the “polyreactivity (PSR sort gate)” value is on record as “high polyreactivity”.

Consider “QVQLVESGGGLVQAGGSLRLSCAASGLTFRRYAMGWYRQAPGKERELVAGISRGGSTYYADSVKGRFTISRDNAKNTVYLQMNRLKPEDTAVYYCAAYNSGTYPVQPVPYDMDYWGQGTQVTVSS”, for which the “polyreactivity (PSR sort gate)” value is “low polyreactivity”.

For the sequence “QVQLVESGGGLVQAGGSLRLSCAASGLTFRVNDMGWYRQAPGKERELVATISSGGSTYYADSVKGRFTISRDNAKNTVYLQMNSLKPEDTAVYYCATNSEGQESNSYYVWMGYWGQGTQVTVSS”, the “polyreactivity (PSR sort gate)” value was “low polyreactivity”.

“QVQLVESGGGLVQAGGSLRLSCAASGLTFRVYAMGWYRQEPGKERELVASISRTGSTTYADSVKGRFTISRDNAKNTVYLQMNSLKPEDTAVYYCNARYYVLLWDSLAREYWGQGTQVTVSS”: the “polyreactivity (PSR sort gate)” value was “high polyreactivity”.

“QVQLVESGGGLVQAGGSLRLSCAASGLTFRYNAMGWYRQATGKERELVARISRNGGRTYYADSVKGRFTISRDNAKNTVYLQMNSLKPEDTAVYYCNVVYFVTTSPGYDYWGQGTQVTVSS”: the “polyreactivity (PSR sort gate)” value was “high polyreactivity”.

For “QVQLVESGGGLVQAGGSLRLSCAASGLTFRYYAMGWYRQAPGKERELVAAISRSGGSTYYADSVKGRFTISRDNAKNTVYLQMNSLKPEDTAVYYCAAGRRGGKQGGTRGGDYWGQGTQVTVSS”, the “polyreactivity (PSR sort gate)” value was “high polyreactivity”.

For “QVQLVESGGGLVQAGGSLRLSCAASGLTFRYYTMGWYRQAPGKERELVAAITKSGSSTYYADSVKGRFTISRDNAKNTVYLQMNSLKPEDTAVYYCAKDSNHWGQGTQVTVSS”, the “polyreactivity (PSR sort gate)” value is “high polyreactivity”.

“QVQLVESGGGLVQAGGSLRLSCAASGLTFSDYAIGWYRQAPGKEREFVAAITRNGGSTRYADSVKGRFTFSRDNAKNTVYLKMNRLKPEDTAVYYCATDVGFGRKQRPHRPGYGYWGQGTQVTVSS”: the “polyreactivity (PSR sort gate)” value is given as “low polyreactivity”.

Take “QVQLVESGGGLVQAGGSLRLSCAASGLTFSHYAMGWYRQAPRKERELVAGISSRGGNTYYADSVKGRFTISRDNAKNTVYLQMNSLKPEDTAVYYCNAPKPKRAYDYWGQGTQVTVSS”: the “polyreactivity (PSR sort gate)” value was “high polyreactivity”.

With “QVQLVESGGGLVQAGGSLRLSCAASGLTFSIYAMGWYRQAPGKERELVASITSSGGSTYYADSVKGRFTISRDNAKNTVYLQMNSLKPEDTAVYYCATGRSRDYDYWGQGTQVTVSS”, the “polyreactivity (PSR sort gate)” value was “high polyreactivity”.

As for “QVQLVESGGGLVQAGGSLRLSCAASGLTFSKNAMGWYRQAPGKEREVVATISYSSYRTNYADSVKGRFTISRDNANNPVYLQMNSLKPEDTAVYYCAARVSKGWPTHYDYWGQGTQVTVSS”, the “polyreactivity (PSR sort gate)” value was “high polyreactivity”.

On to “QVQLVESGGGLVQAGGSLRLSCAASGLTFSKYAMGWYRQAPGQERELVAAITRGDRTYSADSVKGRFTISRDNAKNTVYLQMNSLKPEDTAVYYCAARQYYWGQGTQVTVSS”, for which the “polyreactivity (PSR sort gate)” value is listed as “high polyreactivity”.

With “QVQLVESGGGLVQAGGSLRLSCAASGLTFSLYAMGWYRQAPGKERELVAAISWTGGSTYYADSVKGRFTISRDNAKNTVYLQMNSLKPEDTAVYYCNARYTLFARYCYDYWGQGPQVTVSS”, the “polyreactivity (PSR sort gate)” value is “low polyreactivity”.

“QVQLVESGGGLVQAGGSLRLSCAASGLTFSRYAMGWYRQAPGKERELVAAITSIGGSTYYADSVKGRFTISRDNAKNTVYLQMNSLKPEDTAVYYCRAFFRRDYWGQGTQVTVSS”: the “polyreactivity (PSR sort gate)” value is reported as “high polyreactivity”.

Regarding “QVQLVESGGGLVQAGGSLRLSCAASGLTFSRYAMGWYRQAPGKERELVAAITWSGSSTYYADSVKGRFTISRDNAKNTVYLQMNILKQEDTAVYYCAARYGYSRGPYYRSDYWGQGTQVTVSS”, the “polyreactivity (PSR sort gate)” value is listed as “high polyreactivity”.

Regarding “QVQLVESGGGLVQAGGSLRLSCAASGLTFSTYAMGWYRQAPGKERELVAVIRRTGSTYYADSVKGRFTISRDNAKNTVYLQMNSLKPEDTAVYYCATARRHVSGYDYWGQGTQVTVSS”, the “polyreactivity (PSR sort gate)” value is reported as “high polyreactivity”.

As to “QVQLVESGGGLVQAGGSLRLSCAASGLTFSWYAMGWYRQAPGKEREFVATISASGGSTYYADSVKGRFTISRDNAKNTVYLQMNSLKPEDTAVYYCNAIYFRYRNGGYDYWGQGTQVTVSS”, the “polyreactivity (PSR sort gate)” value is on record as “high polyreactivity”.

Regarding “QVQLVESGGGLVQAGGSLRLSCAASGLTFTINAMGWYRQAPGKERELVAAITGNNTSTYYADSVKGRFTISRDNAKNTVYLQMNSLKPEDTAVYYCAASVYHYGPLYYWGQGTQVTVSS”, the “polyreactivity (PSR sort gate)” value was “low polyreactivity”.

Regarding “QVQLVESGGGLVQAGGSLRLSCAASGLTFTLNAMGRYRQATGKERELVATISQDGGGTTYADSVKGRFTISRDNAKNTVYLQMNSLKPEDTAVYYCATTLPPSVWGEWSGTRYPYDYWGQGTQVTVSS”, the “polyreactivity (PSR sort gate)” value is “low polyreactivity”.

“QVQLVESGGGLVQAGGSLRLSCAASGLTFTNYAMGWYRQAPGKELELVAAISSSGSDTYYADSVKGRFTISRDNAKNTVYLQMNSLKPEDTAVYYCAAVLTALSPDFEYEYWGQGTQVTVSS”: the “polyreactivity (PSR sort gate)” value is on record as “low polyreactivity”.

In the case of “QVQLVESGGGLVQAGGSLRLSCAASGLTFTQYAMGWYRQAPGKERELVAAITSGGRTYYADSVKGRFTISRDNAKNTVYLQMNSLKPEDTAVYYCAADRRYVDAYHFGYWGQGTQVTVSS”, the “polyreactivity (PSR sort gate)” value was “high polyreactivity”.

On to “QVQLVESGGGLVQAGGSLRLSCAASGLTFTTYAMGWYIPAPGKDRELVSAINYRGTSSYYADSVKGRFTISRDNAKKTVYLQINSLKPEDTAVYYCNARQTRSSRINYAEGIYNFWGQGTQVTVSS”, for which the “polyreactivity (PSR sort gate)” value was “high polyreactivity”.

For “QVQLVESGGGLVQAGGSLRLSCAASGLTFTVNAMGWYRQAPGKERELVARIRNSGGRTYYADSVKGRFTISRDNAKNTVYLQMNSLKPEDTAVYYCAARRYYYQVGYDYWGQGTQVTVSS”, the “polyreactivity (PSR sort gate)” value was “high polyreactivity”.

As for “QVQLVESGGGLVQAGGSLRLSCAASGLTFTVYTMVWYRQAPGKERELVATNSWSDGRTYYADSVKGRFTISRDNAKNTVYLQMNSVKPEDTAVYYCATESITWYYFKHEYWGQGTQVTVSS”, the “polyreactivity (PSR sort gate)” value is given as “high polyreactivity”.

On to “QVQLVESGGGLVQAGGSLRLSCAASGLTFVANAMGWYSQAPGKERELVARISSSGGSTYYADSVKGRFTISRDNAKNTVYLQMNSLKPEDTAVYYCASSQSGGYDYWGQGTQVTVSS”, for which the “polyreactivity (PSR sort gate)” value was “high polyreactivity”.

Take “QVQLVESGGGLVQAGGSLRLSCAASGLTFVDYAMGWYRQAPGKERELVAAITSSGGSITYYADSVKGRFTISRDNAKNTVYSQMNSLKPEDTAVYYCNADYGIYTDSFRGPDYESWGQGTQVTVSS”: the “polyreactivity (PSR sort gate)” value is listed as “low polyreactivity”.

Take “QVQLVESGGGLVQAGGSLRLSCAASGLTFVNSTMGWYRQAPGKEWEFVAAITSSGGSSTYYADSVKGRFTISRDNAKNTVYLQMNSLKPEDTAVYDCAAGFSRYVDIVILTVYTGDYWGQGTQVTVSS”: the “polyreactivity (PSR sort gate)” value is reported as “low polyreactivity”.

Turning to “QVQLVESGGGLVQAGGSLRLSCAASGLTFVRYAMGWYRQAPGKERELVAAITTRGGSTYYADSVKGRFTISRDNAKNTVYLQMNSLKPEDTAVFYCNADRVTSSSVRYDYWGQGTQVTVSS”, the “polyreactivity (PSR sort gate)” value is listed as “high polyreactivity”.

For “QVQLVESGGGLVQAGGSLRLSCAASGLTFVSYAMGWYRQAPGKERELVAAISYGGGSTNYADSVKGRFTISRDNAKNTVDLQMNSLKPEDTAVYYCAAEPGYYDEYGYWGQGTQVTVSS”, the “polyreactivity (PSR sort gate)” value is recorded as “low polyreactivity”.

Turning to “QVQLVESGGGLVQAGGSLRLSCAASGLTFVYNDMGWYRQAPGKERELVAGITSGGSTSYADSVKGRFTISRDNAKNTVYLQMNSLKPEDTAVYYCAAGVYALRRDYWGQGTQVTVSS”, the “polyreactivity (PSR sort gate)” value is recorded as “low polyreactivity”.

On to “QVQLVESGGGLVQAGGSLRLSCAASGLTFVYNDMGWYRQAPGKERELVAGITSGGSTYYADSVKGRFTISRDNAKNTVYLQMNSLKPEDTAVYYCAADGLSTDLFRPDSIVDYWGQGTQVTVSS”, for which the “polyreactivity (PSR sort gate)” value is “low polyreactivity”.

As to “QVQLVESGGGLVQAGGSLRLSCAASGLTFVYYAMGWFRQAPGKERELVAAISRGGTTYYADSVKGRFTISRDNAKNTVYLQMNSLKPEETAVYYCNAARYGFGSAYDYWGQGTQGTVSS”, the “polyreactivity (PSR sort gate)” value is on record as “high polyreactivity”.

On to “QVQLVESGGGLVQAGGSLRLSCAASGLTFVYYAMGWYRQAPGKERELVAAISSGGSTYYADSVKGRFTISRDNAKNTVYLQMNSLKPEDTAVYYCAATYSSFRRYPGAHYRFGYWGQGTQVTVSS”, for which the “polyreactivity (PSR sort gate)” value is given as “high polyreactivity”.

With “QVQLVESGGGLVQAGGSLRLSCAASGLTFVYYAMGWYRQAPGKERELVASIDYSGSSTYYADSVKGRFTISRDNSKNTVYLQMNSLKPEDTAVYYCAATDSGEYWGQGTQVTVSS”, the “polyreactivity (PSR sort gate)” value is “low polyreactivity”.

Take “QVQLVESGGGLVQAGGSLRLSCAASGLTFWANTMGWCRQAPGKEREFVAAITWSGGSTYYADSVKGRFTISRDNAKNTVNLQMNSLKPEDTAVYYCAADEDFAAGYSYYYWGQGSQVTVSS”: the “polyreactivity (PSR sort gate)” value is reported as “low polyreactivity”.

For “QVQLVESGGGLVQAGGSLRLSCAASGLTFWAYAMGWYRQAPGKEREFVAAISWSGDSTYYADSVKGRFTISRDNAKNTVYLQMNSLKPEDTAVYYCAAEWYYVYIAPYDYWGQGTQVTVSS”, the “polyreactivity (PSR sort gate)” value is “low polyreactivity”.

For the sequence “QVQLVESGGGLVQAGGSLRLSCAASGLTFWGYAMGWYRQAPGKEREFVASISSGGGSTYYADSVKGRFTMSRDNAKNTVYLQMNSLKPEDTAVYYCNAYRTKYRNQYTYATFDYWGQGTQVTVSS”, the “polyreactivity (PSR sort gate)” value is on record as “low polyreactivity”.

Turning to “QVQLVESGGGLVQAGGSLRLSCAASGLTFWSYAMGWYRQAPGKERELVAAISSGGRTYYADSVKGRFTISRDNAKNTVYLQMNSLKPEDTAVYYCNARSRRGPTKDDYWGQGTQVTVSS”, the “polyreactivity (PSR sort gate)” value is given as “high polyreactivity”.
